By Kd is commonly meant a measure of binding affinity in units of concentration. A low value points to a tighter complex.

For this experiment, the target named is GST. The experiment can be described thus: SPR. (In SPR one partner is held on a chip, and binding of the other changes the refractive index at the surface.)

B1: Recombinant His-tagged Aurora-A (enzyme)
chain: MDRSKENCISGPVKATAPVGGPKRVLVTQQFPCQNPLPVNSGQAQRVLCPSNSSQRIPLQAQKLVSSHKPVQNQKQKQLQATSVPHPVSRPLNNTQKSKQPLPSAPENNPEEELASKQKNEESKKRQWALEDFEIGRPLGKGKFGNVYLAREKQSKFILALKVLFKAQLEKAGVEHQLRREVEIQSHLRHPNILRLYGYFHDATRVYLILEYAPLGTVYRELQKLSKFDEQRTATYITELANALSYCHSKRVIHRDIKPENLLLGSAGELKIADFGWSVHAPSSRRTTLCGTLDYLPPEMIEGRMHDEKVDLWSLGVLCYEFLVGKPPFEANTYQETYKRISRVEFTFPDFVTEGARDLISRLLKHNPSQRPMLREVLEHPWITANSSKPSNCQNKESASKQS
B1 registered a Kd of over 5 µM.

For the origin of these results see PMC5458272 (2017).
